Laboratory results published in US20200023071A1.

Assays:
[1] = biological target: recombinant human CD16b (human) (UniProt O75015); assay: SPR (Biacore T100), antibody immobilized on sensor chip, soluble FcR as analyte, steady state affinity model
[2] = biological target: recombinant human CD16a(V) (human) (UniProt P08637); assay: as above
[3] = biological target: recombinant human CD16a(F) (human) (UniProt P08637); assay: as above
[4] = biological target: recombinant human CD32a (human) (UniProt P12318); assay: as above
Chain of recombinant human CD32a (human) (P12318 34-217): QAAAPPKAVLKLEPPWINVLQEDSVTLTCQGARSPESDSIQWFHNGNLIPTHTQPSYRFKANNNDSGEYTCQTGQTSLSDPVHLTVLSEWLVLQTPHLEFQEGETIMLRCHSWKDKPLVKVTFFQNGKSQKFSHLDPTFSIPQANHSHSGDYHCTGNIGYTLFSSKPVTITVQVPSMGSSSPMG

[5] = biological target: human FcRn (human) (UniProt P55899); assay: as above
Chain of human FcRn (human) (P55899 24-297 limits assumed, chain 1 of 2): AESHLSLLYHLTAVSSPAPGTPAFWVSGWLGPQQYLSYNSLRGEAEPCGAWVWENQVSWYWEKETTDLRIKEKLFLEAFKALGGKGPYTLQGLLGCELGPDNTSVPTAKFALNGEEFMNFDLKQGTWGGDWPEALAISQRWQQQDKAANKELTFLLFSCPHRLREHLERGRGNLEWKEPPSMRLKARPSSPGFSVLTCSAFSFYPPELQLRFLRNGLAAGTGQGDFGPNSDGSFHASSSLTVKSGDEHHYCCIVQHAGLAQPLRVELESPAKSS
Chain of human FcRn (human) (P61769 21-119 limits assumed, chain 2 of 2, further chain): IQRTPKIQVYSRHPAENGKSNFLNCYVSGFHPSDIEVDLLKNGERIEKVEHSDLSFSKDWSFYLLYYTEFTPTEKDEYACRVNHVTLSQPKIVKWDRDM

[6] = biological target: recombinant human CD64 (human) (UniProt P12314); assay: SPR (Biacore T100), antibody immobilized on sensor chip, soluble CD64 as analyte, 1:1 kinetic binding model
Chain of recombinant human CD64 (human) (P12314 16-292 limits assumed): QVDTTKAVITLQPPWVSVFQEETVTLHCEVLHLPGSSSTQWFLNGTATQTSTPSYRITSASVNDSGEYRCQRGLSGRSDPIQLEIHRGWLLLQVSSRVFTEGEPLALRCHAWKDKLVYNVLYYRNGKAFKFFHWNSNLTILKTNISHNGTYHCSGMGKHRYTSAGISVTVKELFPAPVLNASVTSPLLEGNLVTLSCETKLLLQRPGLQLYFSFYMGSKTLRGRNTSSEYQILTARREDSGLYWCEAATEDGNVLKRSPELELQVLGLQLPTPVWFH

Chain of recombinant human CD16a(V) (human) (P08637 17-208 F176V limits assumed): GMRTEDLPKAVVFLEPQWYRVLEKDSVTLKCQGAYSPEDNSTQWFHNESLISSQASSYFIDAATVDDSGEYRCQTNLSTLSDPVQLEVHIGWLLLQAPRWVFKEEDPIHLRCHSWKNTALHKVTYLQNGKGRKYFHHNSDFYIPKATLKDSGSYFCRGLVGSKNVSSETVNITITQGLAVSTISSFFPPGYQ
Chain of recombinant human CD16a(F) (human) (P08637 17-208 limits assumed): as the sequence (P08637 17-208 F176V limits assumed) above, with V160F counted along it
Chain of recombinant human CD16b (human) (O75015 17-200 limits assumed): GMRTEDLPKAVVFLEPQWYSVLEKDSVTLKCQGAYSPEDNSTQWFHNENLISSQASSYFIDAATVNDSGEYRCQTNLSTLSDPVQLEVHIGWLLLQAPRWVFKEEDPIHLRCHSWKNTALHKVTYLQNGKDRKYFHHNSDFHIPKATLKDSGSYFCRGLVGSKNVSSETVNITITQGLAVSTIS

Substance	Kd [1]	Kd [2]	Kd [3]	Kd [4]	Kd [5]	Kd [6]
antibody having wild type human IgG1 domain (from UniProt P01857 1-330)	15000 nM	734 nM	962 nM	2080 nM	–	–
human IgG1 antibody having a N297S substitution (from UniProt P01857 1-330)	–	–	–	–	712 nM	278 nM
